Data reported in patent US20220372159A1.

Target: CD84 on CD4+ T cells of wild-type mice (mouse) (UniProt Q18PI6)
Assay: cell-based or functional assay

Sequence of UniProt Q18PI6 (Q18PI6 22-329): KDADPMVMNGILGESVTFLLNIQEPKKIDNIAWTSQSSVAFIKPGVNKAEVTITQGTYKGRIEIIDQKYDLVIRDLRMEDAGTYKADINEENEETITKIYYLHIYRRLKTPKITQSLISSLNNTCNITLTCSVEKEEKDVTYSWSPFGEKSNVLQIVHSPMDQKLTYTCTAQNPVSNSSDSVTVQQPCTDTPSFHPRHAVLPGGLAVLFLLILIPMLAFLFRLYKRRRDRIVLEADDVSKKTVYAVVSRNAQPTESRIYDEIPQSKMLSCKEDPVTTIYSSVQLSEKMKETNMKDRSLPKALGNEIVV

platelet-derived soluble CD84 (sCD84) in the releasate of GPVI-stimulated WT mouse platelets (from UniProt Q18PI6 22-221) (receptor)
distance and speed of migrating T cells (migration assay with platelet releasate): 25%
